In patent US20200360469A1 (UNIVERSITY OF THE SCIENCES, published 2020):

Target: full-length (FL) BRAF^G469A, 6x-HIS/BRAF^G469A/FLAG (human, UniProt P15056 2-766)
Assay: cell-based or functional assay

Sequence of full-length (FL) BRAF^G469A, 6x-HIS/BRAF^G469A/FLAG (P15056 2-766 G469A): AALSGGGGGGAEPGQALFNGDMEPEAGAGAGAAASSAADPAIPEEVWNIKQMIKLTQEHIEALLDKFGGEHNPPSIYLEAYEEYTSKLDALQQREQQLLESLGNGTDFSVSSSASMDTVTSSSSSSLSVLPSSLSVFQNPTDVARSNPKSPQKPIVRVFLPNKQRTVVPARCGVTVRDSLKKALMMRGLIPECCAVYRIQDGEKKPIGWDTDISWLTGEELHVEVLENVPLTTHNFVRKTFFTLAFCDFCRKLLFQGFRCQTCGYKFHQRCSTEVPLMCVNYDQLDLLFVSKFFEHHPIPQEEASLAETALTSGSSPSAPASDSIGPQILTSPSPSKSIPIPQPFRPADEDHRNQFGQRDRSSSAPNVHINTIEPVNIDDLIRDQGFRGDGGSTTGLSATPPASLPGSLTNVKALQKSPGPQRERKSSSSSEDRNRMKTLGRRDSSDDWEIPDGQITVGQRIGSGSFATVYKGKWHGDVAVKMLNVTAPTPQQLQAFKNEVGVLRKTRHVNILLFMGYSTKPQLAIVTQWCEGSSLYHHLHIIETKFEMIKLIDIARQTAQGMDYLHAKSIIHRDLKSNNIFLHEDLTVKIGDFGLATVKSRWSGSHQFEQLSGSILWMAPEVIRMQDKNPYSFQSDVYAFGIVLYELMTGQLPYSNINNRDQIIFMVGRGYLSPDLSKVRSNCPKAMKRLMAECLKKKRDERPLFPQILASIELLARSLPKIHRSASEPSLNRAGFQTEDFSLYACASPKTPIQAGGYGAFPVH

THHVNILLFM [null-braftide]
IC50, ELISA-based kinase assay (phosphorylation of kinase-dead MEK): 2500 nM
